The values below come from paper PMC5610937 (Journal of molecular biology, 2017).

Residue numbers refer to the chain shown, from its start.

In one assay the target is Fc-hROR2 protein (Homo sapiens (Human)., UniProt Q01974). Nature of the assay: SPR. On the technique in general: In SPR one partner is held on a chip, and binding of the other changes the refractive index at the surface.
Assay [1] addresses mouse ROR2 extracellular domains displayed on HEK293F cells (Mus musculus (Mouse)., UniProt Q9Z138). Briefly: flow cytometry on cells. (Flow cytometry measures light scatter and fluorescence of single cells or particles in a stream.)
Assay [2] addresses human ROR1 ectopically and stably expressed on mouse pre-B cell line 63-12 (Homo sapiens (Human)., UniProt Q01973). Nature of the assay: flow cytometry on cells.
Assay [3] has as its target human ROR2 on the Retrogenix HEK293 cell microarray (Homo sapiens (Human)., UniProt Q01974). Nature of the assay: Retrogenix cell microarray.

Sequence of mouse ROR2 extracellular domains displayed on HEK293F cells (Q9Z138 34-403): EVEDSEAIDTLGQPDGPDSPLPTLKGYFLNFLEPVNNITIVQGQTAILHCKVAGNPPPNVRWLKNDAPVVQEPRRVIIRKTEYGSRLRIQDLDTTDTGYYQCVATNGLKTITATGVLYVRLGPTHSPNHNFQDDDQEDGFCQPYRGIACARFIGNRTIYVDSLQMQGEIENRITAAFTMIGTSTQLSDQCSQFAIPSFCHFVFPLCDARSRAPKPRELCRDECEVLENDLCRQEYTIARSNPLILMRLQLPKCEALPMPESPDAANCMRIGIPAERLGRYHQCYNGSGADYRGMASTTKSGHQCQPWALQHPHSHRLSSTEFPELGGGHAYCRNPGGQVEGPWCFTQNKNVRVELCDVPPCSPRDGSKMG

B1: chimeric rabbit/human anti-human ROR2 Fab XBR2-TOP72 (Fab, V domains shown)
VH: QEQLEESGGRLVTPGTPLTLTCTVSGIDLSSNAMSWVRQAPGKGLEYVGFINGGGGVHYASWARGRFTISKTSTTVDLKITSPTTEDTATYFCARAGTTYYTSFNLWGPGTLVTISS
VL: QFVLTQSPSASAALGSSAKLTCTLSSAHKTYTIAWYQQQQGEAPRLLMMLRTDGSYTKGTGVPDRFSGSSSGADRYLIISSVQADDAAGYYCGADYSGGYVFGGGTQLTVT
On to B1, for which the Kd – broadly, the constant that tells how readily two partners part at equilibrium – with Fc-hROR2 protein was found to be 4150 nM. The figures for the binding result in assay [1] and in assay [2] were “binds” and “no binding”, respectively.

B2: chimeric rabbit/human anti-human ROR2 Fab ERR2-302 (Fab, V domains shown)
VH: QKQLVESGGGLVKPGGSLTLTCTVSGFSLSSYAIGWVRQAPGNGLEWIGIINSYGSTYYASWAKSRSTITRNTNLNTVTLKMTSLTAADTATYFCARSPYGYVSAWGYHRLDLWGQGTLVTISS
VL: SYELTQLPSVSVSLGQTARITCGGASIGSKVVHWYQQKPGLAPGLLIYDDDERPSGVPDRFSGSNSGDTATLTISGAQAGDEAEYYCQLWDGSDVVFGGGTQLTVT
B2 returned a Kd in the assay with Fc-hROR2 protein of 52.5 nM. The figures for the binding result in assay [1] and in assay [2] were “binds” and “no binding”, respectively.

B3: XBR1-402 in chimeric rabbit/human IgG1 format (antibody, V domains shown)
VH: QEQQKESGGGLFKPTDTLTLTCTASGFDISSYYMSWVRQAPGNGLEWIGAIGISGNAYYASWAKSRSTITRNTNLNTVTLKMTSLTAADTATYFCARDHPTYGMDLWGPGTLVTVSS
VL: B2 VL with G23E, A25N, S26N, V31A, E84D, L89V, G92S, D94A, V95Y
Consider B3, for which the binding result in assay [3] is “no binding (tested: 2 μg/mL)”.

B4: chimeric rabbit/human anti-human ROR2 Fab XBR2-433 (Fab, V domains shown)
VH: QSVKESEGGLFKPTDTLTLTCTVSGFSLSTYGVSWVRQAPGNGLEWIGAIGSSGSANYASWAKDRSTITRNTNLNTVTLKMTSLTAADTATYFCARDGYYSSGWGPYFNIWGPGTLVTISS
VL: SFVLTQPASVQVNLGQTVSLTCTADTLSRSYASWYQQKPGQAPVLLIYRDTSRPSGVPDRFSGSSSGNTATLTISGAQAGDEADYYCATSGGSGSNPQYVFGGGTQLTVT
B4: in the assay with Fc-hROR2 protein, the Kd was 2280 nM. Also, the binding result in assay [1] was “binds”; in assay [2], “no binding”.

B5: chimeric rabbit/human anti-human ROR2 Fab ERR2-TOP35 (Fab, V domains shown)
VH: B4 VH with T14M, S29N, I50V, S55A, A56T, D64S, L74E, N109S, I119V
VL: SFVLTQPASVQVNLGQTVSLTCTAETLRSSYASWYQQKPGQAPVLLIYRDTSRPSGVPDRFSGSSSGNTATLTISGAQAGDEADYYCATSDGSGSRYYVFGGGTQLTVT
Take B5: the Kd with Fc-hROR2 protein turned out to be 43.3 nM. The binding result in assay [1] is “binds”; in assay [2], “no binding”.
